Data set [1] deals with the molecule itself. Kind of data set: crystal structure; XlPRMT5-MEP50 co-crystallised with 1 mM SAH; 30%–40% MPD, 100 mM Bis-Tris pH 5.5, 18°C; 3.0 Å.
For data set [2], the target named is T1, Recombinant Flag-tagged human PRMT5 (human, UniProt O14744 1-637).
T1 construct: Protein arginine methyltransferase 5 (PRMT5), human; also called Flag-HsPRMT5; HsPRMT5; source: bought: SinoBiologicals (expressed in 293 cells)
In words: pull-down; XlMEP50 and Flag-HsPRMT5 (both 50 nM) on anti-Flag M2 agarose in TBS, 4°C, 2 hours; eluate immunoblotted for PRMT5 and MEP50; control: MEP50 without PRMT5. The conditions noted are these: both partners purified. A general note: A western blot detects proteins with antibodies after separation by electrophoresis.

T1 sequence (O14744 whole entry): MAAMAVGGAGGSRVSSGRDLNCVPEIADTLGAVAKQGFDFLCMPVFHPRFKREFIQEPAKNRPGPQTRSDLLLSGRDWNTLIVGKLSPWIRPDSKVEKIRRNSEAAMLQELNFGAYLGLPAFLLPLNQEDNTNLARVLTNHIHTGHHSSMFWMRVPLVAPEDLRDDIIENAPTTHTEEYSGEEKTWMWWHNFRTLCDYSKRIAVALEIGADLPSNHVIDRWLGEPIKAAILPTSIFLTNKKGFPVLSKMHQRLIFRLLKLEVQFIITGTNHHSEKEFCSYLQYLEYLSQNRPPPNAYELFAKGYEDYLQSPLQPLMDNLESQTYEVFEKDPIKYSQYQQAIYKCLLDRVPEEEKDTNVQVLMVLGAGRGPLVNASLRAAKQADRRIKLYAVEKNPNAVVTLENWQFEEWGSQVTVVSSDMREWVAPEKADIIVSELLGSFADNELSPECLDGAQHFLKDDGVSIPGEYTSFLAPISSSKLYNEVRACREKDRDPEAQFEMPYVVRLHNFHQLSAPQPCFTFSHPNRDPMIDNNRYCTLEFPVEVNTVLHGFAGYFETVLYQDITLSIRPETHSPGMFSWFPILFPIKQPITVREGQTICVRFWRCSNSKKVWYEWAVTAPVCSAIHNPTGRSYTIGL

B1: Xenopus laevis PRMT5 (enzyme, UniProt Q6NUA1 1-633, looked up)
chain: MAAGDGGRVSSGRDVACVTEVADTLGAMANQGFDFLCMPIFHPRFKREFYKEPAKSRPGPQTRSDLLLSGRDWNTLIVGKLSDWIKTDSEVSRIRKTSEAAMQQELNFSAYLGLPAFLIPLKQEDNSNLSRLLINHIHVGHHSTMFWMRVPLMAPNDLRDDLIENEPISLSEEDNSGEERTWIWWHNFRSLCDYNKKIALAIEIGADLPSGHVIDRWLGEPIKAAFLPTSIFLTNKKGFPVLTKVHQRLIFKLFKLEVQFVISGSHHHSEKDLCSYLQYLEYLSQNSPPPNAYEMFAKGYEDYLQSPLQPLMDNLESQTYEVFEKDPVKYSQYQQAVYKCLLDRVPEEEKETNIQILMVLGAGRGPLVNASLRAAKQAERKIKVYAVEKNPNAVITLEGWRYEEWGSQVTVVSGDMREWKAPEKADIIVSELLGSFGDNELSPECLDGAQHFLKDDGVSIPGEYTSYLAPISSSKLYNEVRACREKDRDPEAQFEMPYVVRLHNFHQLSDPLPCFTFHHPNKDDVIDNNRYCCLQYRVDLNTVLHGFAGYFNTVLYKDVTLSICPESHSPGMFSWFPILFPIKQPIPMREGDTVCVRFWRCNNGKKVWYEWAVTSPVCSAIHNPTGRSYTIGL
notes: Protein arginine methyltransferase 5 (PRMT5), Xenopus laevis, full-length, as the PRMT5 chain of the crystallised XlPRMT5-MEP50 complex; The complex was purified on Ni-NTA, so one or both chains probably carry a His tag; A selenomethionine form was used for phasing; also called XlPRMT5; source: Hi5 cells, baculovirus, co-expressed with MEP50, purified (Ni-NTA, Superdex 200)
Turning to B1, the stoichiometry N – broadly, the number of molecules, sites or subunits per partner or assembly – in data set [1] worked out at 4.

B2: Recombinant Xenopus laevis MEP50 alone (natural protein, UniProt Q6NUD0 1-333, looked up)
chain: MSKGSAWGRPVTAPACMEVQIGAVRYRRDGALLLAASSLSSRTWGGSIWVFKDPEGAPNESLCTAGVQTEAGVTDVAWVSEKGILVASDSGAVELWEILEKESLLVNKFAKYEHDDIVKTLSVFSDGTQAVSGGKDFSVKVWDLSQKAVLKSYNAHSSEVNCVAACPGKDTIFLSCGEDGRILLWDTRKPKPATRIDFCASDTIPTSVTWHPEKDDTFACGDETGNVSLVNIKNPDSAQTSAVHSQNITGLAYSYHSSPFLASISEDCTVAVLDADFSEVFRDLSHRDFVTGVAWSPLDHSKFTTVGWDHKVLHHHLPSEGRTENLIATKAED
notes: MEP50, Xenopus laevis; recombinant protein used without PRMT5; also called XlMEP50; Xenopus MEP50
In the case of B2, the binding result in data set [2] was “binds”.

These data come from paper PMC3581573 (PLoS ONE, 2013).
